# The Human Domainome abundance scans (Beltran et al. 2025)
# ± gives the uncertainty stated by the source.
# B1: Triacylglycerol hydrolase DDHD2, residues 389 to 447; numbered along this chain, O94830 (parent)
# chain: TLEEDLKKLQLSEFFDIFEKEKVDKEALALCTDRDLQEIGIPLGPRKKILNYFSTRKNS
# Variants of: B1
# Test: abundance fitness (aPCA) (normalised: wild type 0, dead -1); higher = more abundant; growth selection in yeast, the domain comes from the species named
# Conditions: Homo sapiens
row,Variant,abundance fitness
1,TLEEDLIKLQLSEFFDIFEKEKVDKEALALCTDRDLQEIGIPLGPRKKILNYFSTRKNS,-0.741 ± 0.38
2,TLEEDLTKLQLSEFFDIFEKEKVDKEALALCTDRDLQEIGIPLGPRKKILNYFSTRKNS,-0.196 ± 0.099
3,TLEEDLGKLQLSEFFDIFEKEKVDKEALALCTDRDLQEIGIPLGPRKKILNYFSTRKNS,-0.056 ± 0.089
4,TLEEDLRKLQLSEFFDIFEKEKVDKEALALCTDRDLQEIGIPLGPRKKILNYFSTRKNS,0.108 ± 0.074
5,TLEEDLAKLQLSEFFDIFEKEKVDKEALALCTDRDLQEIGIPLGPRKKILNYFSTRKNS,-0.032 ± 0.086
6,TLEEDLLKLQLSEFFDIFEKEKVDKEALALCTDRDLQEIGIPLGPRKKILNYFSTRKNS,-0.203 ± 0.074
7,TLEEDLEKLQLSEFFDIFEKEKVDKEALALCTDRDLQEIGIPLGPRKKILNYFSTRKNS,-0.017 ± 0.14
8,TLEEDLYKLQLSEFFDIFEKEKVDKEALALCTDRDLQEIGIPLGPRKKILNYFSTRKNS,-0.006 ± 0.14
9,TLEEDLVKLQLSEFFDIFEKEKVDKEALALCTDRDLQEIGIPLGPRKKILNYFSTRKNS,-0.43 ± 0.087
10,TLEEDLMKLQLSEFFDIFEKEKVDKEALALCTDRDLQEIGIPLGPRKKILNYFSTRKNS,-0.424 ± 0.18
11,TLEEDLFKLQLSEFFDIFEKEKVDKEALALCTDRDLQEIGIPLGPRKKILNYFSTRKNS,-0.038 ± 0.14
12,TLEEDLCKLQLSEFFDIFEKEKVDKEALALCTDRDLQEIGIPLGPRKKILNYFSTRKNS,-0.294 ± 0.2
13,TLEEDLSKLQLSEFFDIFEKEKVDKEALALCTDRDLQEIGIPLGPRKKILNYFSTRKNS,-0.08 ± 0.077
14,TLEEDLNKLQLSEFFDIFEKEKVDKEALALCTDRDLQEIGIPLGPRKKILNYFSTRKNS,-0.153 ± 0.22
15,TLEEDLQKLQLSEFFDIFEKEKVDKEALALCTDRDLQEIGIPLGPRKKILNYFSTRKNS,0.083 ± 0.12
16,TLEEDLPKLQLSEFFDIFEKEKVDKEALALCTDRDLQEIGIPLGPRKKILNYFSTRKNS,-0.689 ± 0.11
17,TLEEDLHKLQLSEFFDIFEKEKVDKEALALCTDRDLQEIGIPLGPRKKILNYFSTRKNS,-0.07 ± 0.16
18,TLEEDLKKLCLSEFFDIFEKEKVDKEALALCTDRDLQEIGIPLGPRKKILNYFSTRKNS,-0.101 ± 0.078
19,TLEEDLKKLNLSEFFDIFEKEKVDKEALALCTDRDLQEIGIPLGPRKKILNYFSTRKNS,0.011 ± 0.2
20,TLEEDLKKLRLSEFFDIFEKEKVDKEALALCTDRDLQEIGIPLGPRKKILNYFSTRKNS,-0.247 ± 0.052
21,TLEEDLKKLDLSEFFDIFEKEKVDKEALALCTDRDLQEIGIPLGPRKKILNYFSTRKNS,0.069 ± 0.099
22,TLEEDLKKLMLSEFFDIFEKEKVDKEALALCTDRDLQEIGIPLGPRKKILNYFSTRKNS,-0.1 ± 0.074
23,TLEEDLKKLPLSEFFDIFEKEKVDKEALALCTDRDLQEIGIPLGPRKKILNYFSTRKNS,-0.863 ± 0.093

row,Variant,abundance fitness
1,TLEEDLKKLGLSEFFDIFEKEKVDKEALALCTDRDLQEIGIPLGPRKKILNYFSTRKNS,-0.131 ± 0.046
2,TLEEDLKKLYLSEFFDIFEKEKVDKEALALCTDRDLQEIGIPLGPRKKILNYFSTRKNS,-0.191 ± 0.17
3,TLEEDLKKLVLSEFFDIFEKEKVDKEALALCTDRDLQEIGIPLGPRKKILNYFSTRKNS,-0.667 ± 0.055
4,TLEEDLKKLHLSEFFDIFEKEKVDKEALALCTDRDLQEIGIPLGPRKKILNYFSTRKNS,-0.138 ± 0.13
5,TLEEDLKKLALSEFFDIFEKEKVDKEALALCTDRDLQEIGIPLGPRKKILNYFSTRKNS,-0.22 ± 0.05
6,TLEEDLKKLELSEFFDIFEKEKVDKEALALCTDRDLQEIGIPLGPRKKILNYFSTRKNS,0.119 ± 0.061
7,TLEEDLKKLILSEFFDIFEKEKVDKEALALCTDRDLQEIGIPLGPRKKILNYFSTRKNS,-0.852 ± 0.34
8,TLEEDLKKLFLSEFFDIFEKEKVDKEALALCTDRDLQEIGIPLGPRKKILNYFSTRKNS,-0.421 ± 0.13
9,TLEEDLKKLTLSEFFDIFEKEKVDKEALALCTDRDLQEIGIPLGPRKKILNYFSTRKNS,-0.241 ± 0.08
10,TLEEDLKKLLLSEFFDIFEKEKVDKEALALCTDRDLQEIGIPLGPRKKILNYFSTRKNS,-0.52 ± 0.059
11,TLEEDLKKLQFSEFFDIFEKEKVDKEALALCTDRDLQEIGIPLGPRKKILNYFSTRKNS,-1.05 ± 0.17
12,TLEEDLKKLQESEFFDIFEKEKVDKEALALCTDRDLQEIGIPLGPRKKILNYFSTRKNS,-0.856 ± 0.088
13,TLEEDLKKLQCSEFFDIFEKEKVDKEALALCTDRDLQEIGIPLGPRKKILNYFSTRKNS,-0.462 ± 0.088
14,TLEEDLKKLQASEFFDIFEKEKVDKEALALCTDRDLQEIGIPLGPRKKILNYFSTRKNS,-0.882 ± 0.098
15,TLEEDVKKLQLSEFFDIFEKEKVDKEALALCTDRDLQEIGIPLGPRKKILNYFSTRKNS,-1.12 ± 0.11
16,TLEEDQKKLQLSEFFDIFEKEKVDKEALALCTDRDLQEIGIPLGPRKKILNYFSTRKNS,-0.336 ± 0.17
17,TLEEDTKKLQLSEFFDIFEKEKVDKEALALCTDRDLQEIGIPLGPRKKILNYFSTRKNS,-0.492 ± 0.11
18,TLEEDYKKLQLSEFFDIFEKEKVDKEALALCTDRDLQEIGIPLGPRKKILNYFSTRKNS,-0.675 ± 0.43
19,TLEEDWKKLQLSEFFDIFEKEKVDKEALALCTDRDLQEIGIPLGPRKKILNYFSTRKNS,-0.45 ± 0.11
20,TLEEDRKKLQLSEFFDIFEKEKVDKEALALCTDRDLQEIGIPLGPRKKILNYFSTRKNS,-0.833 ± 0.11
21,TLEEDSKKLQLSEFFDIFEKEKVDKEALALCTDRDLQEIGIPLGPRKKILNYFSTRKNS,-0.767 ± 0.13
22,TLEEDPKKLQLSEFFDIFEKEKVDKEALALCTDRDLQEIGIPLGPRKKILNYFSTRKNS,-0.35 ± 0.1
